Experimental findings from patent US20230039976A1 are described below.

The target in assay [1] is programmed cell death protein 1 (PD-1) on tumor infiltrating lymphocytes (human) (UniProt Q15116). The assay is described as follows: flow cytometry of melanoma tumor digest M1156; EH12.2H7 staining; percent of CD3+ cells stained. For orientation: A flow cytometer gives signals particle by particle.
Assay [2] shares this target. The assay is described as follows: flow cytometry of head and neck tumor digest H3046; EH12.2H7 staining; percent of CD3+ cells stained.
The target is the same in assay [3]. The assay is described as follows: flow cytometry of ovarian tumor digest OV8074; EH12.2H7 staining; percent of CD3+ cells stained.

Chain of UniProt Q15116 (Q15116 25-288): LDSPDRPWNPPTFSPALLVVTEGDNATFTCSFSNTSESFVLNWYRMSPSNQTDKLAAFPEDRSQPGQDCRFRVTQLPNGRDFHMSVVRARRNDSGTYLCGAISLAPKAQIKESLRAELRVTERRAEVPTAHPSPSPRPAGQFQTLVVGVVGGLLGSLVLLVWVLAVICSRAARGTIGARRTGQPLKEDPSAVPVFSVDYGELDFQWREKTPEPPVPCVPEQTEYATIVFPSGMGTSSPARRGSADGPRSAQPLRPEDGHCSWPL

B1: anti-PD-1 antibody clone EH12.2H7 (BioLegend, Cat #329906) (antibody, from another filing, V domains shown)
VH: QVQLQQSGAELAKPGASVQMSCKASGYSFTSSWIHWVKQRPGQGLEWIGYIYPSTGFTEYNQKFKDKATLTADKSSSTAYMQLSSLTSEDSAVYYCARWRDSSGYHAMDYWGQGTSVTVSS
VL: DIVLTQSPASLTVSLGQRATISCRASQSVSTSGYSYMHWYQQKPGQPPKLLIKFGSNLESGIPARFSGSGSGTDFTLNIHPVEEEDTATYYCQHSWEIPYTFGGGTKLEIK
For the molecule B1, the Pre-sort % PD-1+ (of CD3+) in assay [1] was 93%; in assay [2], 13%; in assay [3] it was 70%.
